Molecular target: human sPLA2-IIA (Type IIA secreted phospholipase A2) (human) (UniProt P14555)
Assay: cell-based or functional assay

Chain of human sPLA2-IIA (Type IIA secreted phospholipase A2) (human) (P14555 21-144 limits assumed): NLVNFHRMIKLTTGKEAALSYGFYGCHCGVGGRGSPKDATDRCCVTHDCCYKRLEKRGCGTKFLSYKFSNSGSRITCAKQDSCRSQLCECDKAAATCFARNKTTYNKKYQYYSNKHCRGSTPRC

smallest effective dose, proliferation of unstimulated LNCaP and PC-3 cells (MTS assay, doses 1-100 nM): 1 nM
Substance: c(2NapA)LS(2NapA)R (cyclic (2Nap)LS(2Nap)R) (peptide)

Reference: patent US20080113343A1
